Publication doi:10.1101/2025.10.01.679551, “Mechanism of phosphoinositide regulation of lysosomal pH via inhibition of CLC-7” (bioRxiv, 2025)
Each block holds one binder with its values, some of them ahead of it.

B1: human ClC-7 (wild type), C-terminal 6His-tag (natural protein)
chain: MANVSKKVSWSGRDRDDEEAAPLLRRTARPGGGTPLLNGAGPGAARQSPRSALFRVGHMSSVELDDELLDPDMDPPHPFPKEIPHNEKLLSLKYESLDYDNSENQLFLEEERRINHTAFRTVEIKRWVICALIGILTGLVACFIDIVVENLAGLKYRVIKGNIDKFTEKGGLSFSLLLWATLNAAFVLVGSVIVAFIEPVAAGSGIPQIKCFLNGVKIPHVVRLKTLVIKVSGVILSVVGGLAVGKEGPMIHSGSVIAAGISQGRSTSLKRDFKIFEYFRRDTEKRDFVSAGAAAGVSAAFGAPVGGVLFSLEEGASFWNQFLTWRIFFASMISTFTLNFVLSIYHGNMWDLSSPGLINFGRFDSEKMAYTIHEIPVFIAMGVVGGVLGAVFNALNYWLTMFRIRYIHRPCLQVIEAVLVAAVTATVAFVLIYSSRDCQPLQGGSMSYPLQLFCADGEYNSMAAAFFNTPEKSVVSLFHDPPGSYNPLTLGLFTLVYFFLACWTYGLTVSAGVFIPSLLIGAAWGRLFGISLSYLTGAAIWADPGKYALMGAAAQLGGIVRMTLSLTVIMMEATSNVTYGFPIMLVLMTAKIVGDVFIEGLYDMHIQLQSVPFLHWEAPVTSHSLTAREVMSTPVTCLRRREKVGVIVDVLSDTASNHNGFPVVEHADDTQPARLQGLILRSQLIVLLKHKVFVERSNLGLVQRRLRLKDFRDAYPRFPPIQSIHVSQDERECTMDLSEFMNPSPYTVPQEASLPRVFKLFRALGLRHLVVVDNRNQVVGLVTRKDLARYRLGKRGLEELSLAQT
notes: ClC-7 Cl-/H+ antiporter, Homo sapiens, synthesised gene in pLexM; Homodimer; each subunit carries one Ostm1; The cytoplasmic domain is not resolved in the structure without lipid (9G6D); also called wtCLC7; WT-CLC7; source: HEK293F (Freestyle 293F), co-transfected with OSTM1-Flag
B2: human ClC-7 Y715C, C-terminal 6His-tag (natural protein)
chain: MANVSKKVSWSGRDRDDEEAAPLLRRTARPGGGTPLLNGAGPGAARQSPRSALFRVGHMSSVELDDELLDPDMDPPHPFPKEIPHNEKLLSLKYESLDYDNSENQLFLEEERRINHTAFRTVEIKRWVICALIGILTGLVACFIDIVVENLAGLKYRVIKGNIDKFTEKGGLSFSLLLWATLNAAFVLVGSVIVAFIEPVAAGSGIPQIKCFLNGVKIPHVVRLKTLVIKVSGVILSVVGGLAVGKEGPMIHSGSVIAAGISQGRSTSLKRDFKIFEYFRRDTEKRDFVSAGAAAGVSAAFGAPVGGVLFSLEEGASFWNQFLTWRIFFASMISTFTLNFVLSIYHGNMWDLSSPGLINFGRFDSEKMAYTIHEIPVFIAMGVVGGVLGAVFNALNYWLTMFRIRYIHRPCLQVIEAVLVAAVTATVAFVLIYSSRDCQPLQGGSMSYPLQLFCADGEYNSMAAAFFNTPEKSVVSLFHDPPGSYNPLTLGLFTLVYFFLACWTYGLTVSAGVFIPSLLIGAAWGRLFGISLSYLTGAAIWADPGKYALMGAAAQLGGIVRMTLSLTVIMMEATSNVTYGFPIMLVLMTAKIVGDVFIEGLYDMHIQLQSVPFLHWEAPVTSHSLTAREVMSTPVTCLRRREKVGVIVDVLSDTASNHNGFPVVEHADDTQPARLQGLILRSQLIVLLKHKVFVERSNLGLVQRRLRLKDFRDACPRFPPIQSIHVSQDERECTMDLSEFMNPSPYTVPQEASLPRVFKLFRALGLRHLVVVDNRNQVVGLVTRKDLARYRLGKRGLEELSLAQT
notes: ClC-7 Cl-/H+ antiporter, Homo sapiens, synthesised gene in pLexM with the patient gain-of-function mutation Y715C; Y715C is a mutation found in human patients; The cytoplasmic domain is not resolved in 9G6E; also called CLC7Y715C-His; source: HEK293F (Freestyle 293F), co-transfected with OSTM1-Flag

Columns and labels:
[1] = molecular target: the molecule itself; assay: cryo-EM structure; ClC-7/Ostm1 complex co-expressed in HEK293F, purified by FLAG affinity and SEC in LMNG/CHS with lipid bought as PI(3,5)P2 added during purification; supplemented with 0.1 % LMNG and 2.5 mM ATP; C2 symmetry
[2] = molecular target: the molecule itself; assay: cryo-EM structure; ClC-7/Ostm1 complex co-expressed in HEK293F, purified by FLAG affinity and SEC in LMNG/CHS, no lipid added (apo); C2 symmetry
[3] = molecular target: B2; assay: as above; conditions: both partners purified
[4] = molecular target: B1; assay: as above; conditions: both partners purified

Binder: B1
binding result [1]: binds

Binder: B2
binding result [2]: binds

binding result [3]: binds | binding result [4]: binds
B3: human Ostm1, C-terminal Flag-tag (natural protein)
chain: ALPFGSSPHRVFHDLLSEQQLLEVEDLSLSLLQGGGLGPLSLPPDLPDLDPECRELLLDFANSSAELTGCLVRSARPVRLCQTCYPLFQQVVSKMDNISRAAGNTSESQSCARSLLMADRMQIVVILSEFFNTTWQEANCANCLTNNSEELSNSTVYFLNLFNHTLTCFEHNLQGNAHSLLQTKNYSEVCKNCREAYKTLSSLYSEMQKMNELENKAEPGTHLCIDVEDAMNITRKLWSRTFNCSVPCSDTVPVIAVSVFILFLPVVFYLSSFLHSEQKKRKLILPKRLKSSTSFANIQENSN
notes: Ostm1, Homo sapiens, synthesised gene in pLexM; Two copies in the ClC-7/Ostm1 complex, one for each ClC-7 subunit; also called OSTM1-Flag; source: HEK293F (Freestyle 293F), co-transfected with CLC7-His or CLC7Y715C-His; not shown: Flag, C-terminal, kept
